This is an account of results in publication PMC2716403 (Journal of molecular biology, 2009).

Holding throughout (assay): ITC
In experiment [1] the target is RanGDP (wild-type Ran, GDP-bound) (Rattus norvegicus, UniProt P62828 1-216).
The target in experiment [2] is T1, RanGDP (wild-type Ran, GDP-bound) (Rattus norvegicus, UniProt P62828 1-216). The source holds these as a separate data set.
Experiment [3] deals with T1, RanGDP (wild-type Ran, GDP-bound). The source holds these as a separate data set.

Read-outs that look alike come from different tables or passages of the source.

B1: Nup153-ZnF4D8Q (domain or fragment)
chain: GPLGSGSWQCEVCLVQNKADSTKCIACESAKPGTKSEFKGFGT
In the case of B1, the Kd (commonly the free concentration of one partner at which half of the binding sites on the other are occupied at equilibrium, for simple one-to-one binding) in experiment [1] is 3 µM.

B2: Nup153-ZnF1 (domain or fragment)
chain: AGSSWQCDTCLLQNKVTDNKCIACQAAKL
In experiment [2], B2 came in with a Kd of 6 µM. That is a single-digit micromolar value.

B3: Nup153-ZnF3 (domain or fragment)
chain: VGSWECPVCCVSNKAEDSRCVSCTSEKP
With B3, in experiment [2], the affinity, expressed as Kd, was 7 µM.

B4: Nup153-ZnF4 (domain or fragment)
chain: GSWDCEVCLVQNKADSTKCIACESAKPGTKSEFKGFGT
For the molecule B4, the Kd in experiment [3] worked out at 47 µM. That is a double-digit micromolar value.

B5: Nup358-ZnF12 (domain or fragment)
chain: KEGSWWHCNSCSLKNASTAKKCVSCQNLNPSNKELVGPPLAETVFTPKTSPENVQDRFALVTPKKEGHWDCSICLVRNEPTVSRCIACQNTKSA
For B5, the Kd in experiment [3] was determined as 15 µM.

B6: Nup153-ZnF2 (domain or fragment)
chain: GTWDCDTCLVQNKPEAVKCVACETPKPG
As to B6, the Kd in experiment [3] came out at 49 µM.
